Like-named read-outs stand apart in the source and are kept apart here.
What was measured:
[1] = cited from earlier work
[2] = Kinetic Exclusion Assay (KinExA) affinity determination of IgG; assay type: binding; conditions: for Fold Improvement: KD, relative to 1-60-46 WT IgG
Experimental: The equilibrium dissociation constants for both the 1-60-46 AM2 IgG and the 1-60-46 WT mAb IgG produced from the murine hybridoma cell line 1-60-46 were determined using Kinetic Exclusion Assay (KinExA®), available from Sapidyne Instruments (Boise, Id.) (See, Darling and Brault, ASSAY and Drug Development Technologies, 2(6):647-657 (2004)). A constant amount of IgG antibody (AM2 or WT) was incubated with various concentrations (10^−8 M to 10^−13 M) of tacrolimus drug (commercially available from Astellas Pharma, Inc., Tokyo, Japan) and allowed to come to equilibrium (2 hours to 14 hours) before sampling. The amount of free binding sites was determined by injecting the antibody:tacrolimus reaction mixture over bt-tacro immobilized to a solid-phase. Tacrolimus IgG antibody bound to the bt-tacro immobilized to the solid-phase was subsequently detected by injecting goat anti-mouse polyclonal antibody conjugates (GAM) to Cy5 (GAM-Cy5) fluorescent dye. The degree of GAM-Cy5 bound was proportional to the amount of tacrolimus IgG bound to the immobilized bt-tacro and was detected after excitation with the appropriate wavelength. The KD was determined by analyzing the amount of free binding sites versus the amount of antigen present in the reaction sample using software provided by the manufacturer (Sapidyne Instruments; Boise, Id.).

Molecule: C=CC[C@@H]1/C=C(\C)C[C@H](C)C[C@H](OC)[C@H]2O[C@@](O)(C(=O)C(=O)N3CCCC[C@H]3C(=O)O[C@H](/C(C)=C/[C@@H]3CC[C@@H](O)[C@H](OC)C3)[C@H](C)[C@@H](O)CC1=O)[C@H](C)C[C@@H]2OC [Tacrolimus]
- in vivo potency greater than cyclosporine CsA [1]: 50-100 times

B1: 1-60-46 AM2 IgG: murine IgG2a/κ containing the H2-1A, L1-1B and L3-A mutations; SEQ ID NO:40 and 42 (antibody)
heavy: EVELVESGGDLVKPGGSLKLSCAASGFTFSSYGMSWVRQTPDKRLEWVATISSGGAWTFYPDSVKGRFTISRDNAKNTLSLQMSSLKSADTAMYYCSRQTDGYSWFPYWGQGTLVTVSASAKTTAPSVYPLAPVCGDTTGSSVTLGCLVKGYFPEPVTLTWNSGSLSSGVHTFPAVLQSDLYTLSSSVTVTSSTWPSQSITCNVAHPASSTKVDKKIEPRGPTIKPCPPCKCPAPNLLGGPSVFIFPPKIKDVLMISLSPIVTCVVVDVSEDDPDVQISWFVNNVEVHTAQTQTHREDYNSTLRVVSALPIQHQDWMSGKEFKCKVNNKDLPAPIERTISKPKGSVRAPQVYVLPPPEEEMTKKQVTLTCMVTDFMPEDIYVEWTNNGKTELNYKNTEPVLDSDGSYFMYSKLRVEKKNWVERNSYSCSVVHEGLHNHHTTKSFSRTPGK
light: DVLMTQTPLSLPVSLGDQASISCKSSQGLVHSTGNTFLEWFLQKPGQSPKLLIYKISNRFSGVPDRFSGSGSGTDFTLKISRVESEDLGVYYCFQGSHAPLTFGAGTKLELKRASADAAPTVSIFPPSSEQLTSGGASVVCFLNNFYPKDINVKWKIDGSERQNGVLNSWTDQDSKDSTYSMSSTLTLTKDEYERHNSYTCEATHKTSTSPIVKSFNRNEC
modifications: Mouse
- Fold Improvement ([2]; 10% MeOH): 12x
- Fold Improvement ([2]; no MeOH): 16x
- improvement in KD relative to the 1-60-46 WT IgG ([2]; physiological diluent): 16 fold
- Kd ([2]; physiological diluent (PBS pH 7.4, 1% BSA), read-out: KD (no MeOH)): 1.2 pM
- improvement in KD relative to the 1-60-46 WT IgG ([2]; selection diluent): 12 fold
- Kd ([2]; selection diluent (PBS, 1% BSA, 10% methanol), read-out: Kd (10% MeOH)): 13 pM

Source: patent publication US8022188B2, “Immunosuppressant binding antibodies and methods of obtaining and using same” (Abbott Laboratories, priority 2006, dated 2011)
